In the supplement of paper PMC10567573:

B1: SCARA5 (parent)
chain: VTEDLRLKDWEHSIALRNISLAKG
B2: KRT18 (parent)
chain: KSQDLAKIMADIRAQYDELARKNR

Variants of: B1
Experiment: protein stability index of a GFP-peptide fusion (GPS, HEK-293T) (PSI 1-6); higher = more stable
Settings: c terminus: a fixed tail appended
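Note: lentivirally expressed fusions sorted by FACS into six bins by GFP to DsRed ratio, PSI derived from sequencing read proportions per bin multiplied by bin number.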

Variant | protein stability index
VTEDLRLKDWEHSIALRNISLANG | 3.48
VTEDLRLKDWEHSIALRNISLAPG | 3.44
VTEDLRLKDWEHSIALRNISLAQG | 3.09
VTEDLRLKDWEHSIALRNISLARG | 2.96
VTEDLRLKDWEHSIALRNISLASG | 3.3
VTEDLRLKDWEHSIALRNISLATG | 2.85
VTEDLRLKDWEHSIALRNISLAVG | 2.29
VTEDLRLKDWEHSIALRNISLAWG | 2.22
VTEDLRLKDWEHSIALRNISLAYG | 1.64
VTEDLRLKDWEHSIALRNISLAKA | 3.4
VTEDLRLKDWEHSIALRNISLAKC | 2.83
VTEDLRLKDWEHSIALRNISLAKD | 4.08
VTEDLRLKDWEHSIALRNISLAKE | 4.13
VTEDLRLKDWEHSIALRNISLAKF | 2.49
VTEDLRLKDWEHSIALRNISLAKH | 3.3
VTEDLRLKDWEHSIALRNISLAKI | 2.42
VTEDLRLKDWEHSIALRNISLAKK | 3.65
VTEDLRLKDWEHSIALRNISLAKL | 2.04
VTEDLRLKDWEHSIALRNISLAKM | 2.95
VTEDLRLKDWEHSIALRNISLAKN | 3.06
VTEDLRLKDWEHSIALRNISLAKP | 3.09
VTEDLRLKDWEHSIALRNISLAKQ | 3.49
VTEDLRLKDWEHSIALRNISLAKR | 3.46
VTEDLRLKDWEHSIALRNISLAKS | 3.31
VTEDLRLKDWEHSIALRNISLAKT | 3.43
VTEDLRLKDWEHSIALRNISLAKV | 2.26
VTEDLRLKDWEHSIALRNISLAKW | 2.39
VTEDLRLKDWEHSIALRNISLAKY | 3.14

Variants of: B2
Experiment: as above
Settings: c terminus: a fixed tail appended

Variant | protein stability index
ASQDLAKIMADIRAQYDELARKNR | 2.58
CSQDLAKIMADIRAQYDELARKNR | 2.51
DSQDLAKIMADIRAQYDELARKNR | 2.05
ESQDLAKIMADIRAQYDELARKNR | 2.41
FSQDLAKIMADIRAQYDELARKNR | 3.1
GSQDLAKIMADIRAQYDELARKNR | 2.83
HSQDLAKIMADIRAQYDELARKNR | 2.58
ISQDLAKIMADIRAQYDELARKNR | 2.91
LSQDLAKIMADIRAQYDELARKNR | 2.88
MSQDLAKIMADIRAQYDELARKNR | 2.81
NSQDLAKIMADIRAQYDELARKNR | 2.6
PSQDLAKIMADIRAQYDELARKNR | 3.03
QSQDLAKIMADIRAQYDELARKNR | 2.9
RSQDLAKIMADIRAQYDELARKNR | 2.62
SSQDLAKIMADIRAQYDELARKNR | 2.58
TSQDLAKIMADIRAQYDELARKNR | 2.58
VSQDLAKIMADIRAQYDELARKNR | 2.71
WSQDLAKIMADIRAQYDELARKNR | 2.28
YSQDLAKIMADIRAQYDELARKNR | 2.2
KAQDLAKIMADIRAQYDELARKNR | 2.2
KCQDLAKIMADIRAQYDELARKNR | 2.14
KDQDLAKIMADIRAQYDELARKNR | 2.85
KEQDLAKIMADIRAQYDELARKNR | 3.02

Variant | protein stability index
KFQDLAKIMADIRAQYDELARKNR | 1.84
KGQDLAKIMADIRAQYDELARKNR | 2.59
KHQDLAKIMADIRAQYDELARKNR | 2.63
KIQDLAKIMADIRAQYDELARKNR | 2.11
KKQDLAKIMADIRAQYDELARKNR | 3.06
KLQDLAKIMADIRAQYDELARKNR | 1.73
KMQDLAKIMADIRAQYDELARKNR | 2.04
KNQDLAKIMADIRAQYDELARKNR | 2.41
KPQDLAKIMADIRAQYDELARKNR | 2.43
KQQDLAKIMADIRAQYDELARKNR | 2.46
KRQDLAKIMADIRAQYDELARKNR | 2.56
KTQDLAKIMADIRAQYDELARKNR | 2.7
KVQDLAKIMADIRAQYDELARKNR | 1.9
KWQDLAKIMADIRAQYDELARKNR | 1.86
KYQDLAKIMADIRAQYDELARKNR | 2.04
KSADLAKIMADIRAQYDELARKNR | 2.31
KSCDLAKIMADIRAQYDELARKNR | 2.02
KSDDLAKIMADIRAQYDELARKNR | 3.09
KSEDLAKIMADIRAQYDELARKNR | 2.89
KSFDLAKIMADIRAQYDELARKNR | 2.46
KSGDLAKIMADIRAQYDELARKNR | 2.72
KSHDLAKIMADIRAQYDELARKNR | 2.13
KSIDLAKIMADIRAQYDELARKNR | 2.35

Variant | protein stability index
KSKDLAKIMADIRAQYDELARKNR | 2.37
KSLDLAKIMADIRAQYDELARKNR | 2.49
KSMDLAKIMADIRAQYDELARKNR | 2.41
KSNDLAKIMADIRAQYDELARKNR | 3.25
KSPDLAKIMADIRAQYDELARKNR | 2.75
KSRDLAKIMADIRAQYDELARKNR | 2.57
KSSDLAKIMADIRAQYDELARKNR | 2.69
KSTDLAKIMADIRAQYDELARKNR | 2.76
KSVDLAKIMADIRAQYDELARKNR | 2.34
KSWDLAKIMADIRAQYDELARKNR | 1.71
KSYDLAKIMADIRAQYDELARKNR | 1.88
KSQALAKIMADIRAQYDELARKNR | 2.13
KSQCLAKIMADIRAQYDELARKNR | 1.64
KSQELAKIMADIRAQYDELARKNR | 2.5
KSQFLAKIMADIRAQYDELARKNR | 2.25
KSQGLAKIMADIRAQYDELARKNR | 3.18
KSQHLAKIMADIRAQYDELARKNR | 3.03
KSQILAKIMADIRAQYDELARKNR | 2.1
KSQKLAKIMADIRAQYDELARKNR | 1.98
KSQLLAKIMADIRAQYDELARKNR | 1.72
KSQMLAKIMADIRAQYDELARKNR | 1.99
KSQNLAKIMADIRAQYDELARKNR | 2.6
KSQPLAKIMADIRAQYDELARKNR | 2.68

Variant | protein stability index
KSQQLAKIMADIRAQYDELARKNR | 2.42
KSQRLAKIMADIRAQYDELARKNR | 2.68
KSQSLAKIMADIRAQYDELARKNR | 2.38
KSQTLAKIMADIRAQYDELARKNR | 1.76
KSQVLAKIMADIRAQYDELARKNR | 1.61
KSQWLAKIMADIRAQYDELARKNR | 2.04
KSQYLAKIMADIRAQYDELARKNR | 1.88
KSQDAAKIMADIRAQYDELARKNR | 3.72
KSQDCAKIMADIRAQYDELARKNR | 3.02
KSQDDAKIMADIRAQYDELARKNR | 4.16
KSQDEAKIMADIRAQYDELARKNR | 3.94
KSQDFAKIMADIRAQYDELARKNR | 2.45
KSQDGAKIMADIRAQYDELARKNR | 4.49
KSQDHAKIMADIRAQYDELARKNR | 3.83
KSQDIAKIMADIRAQYDELARKNR | 2.38
KSQDKAKIMADIRAQYDELARKNR | 3.75
KSQDMAKIMADIRAQYDELARKNR | 2.99
KSQDNAKIMADIRAQYDELARKNR | 4.26
KSQDPAKIMADIRAQYDELARKNR | 3.59
KSQDQAKIMADIRAQYDELARKNR | 4.06
KSQDRAKIMADIRAQYDELARKNR | 3.83
KSQDSAKIMADIRAQYDELARKNR | 4.1
KSQDTAKIMADIRAQYDELARKNR | 3.51

Variant | protein stability index
KSQDVAKIMADIRAQYDELARKNR | 3.24
KSQDWAKIMADIRAQYDELARKNR | 2.62
KSQDYAKIMADIRAQYDELARKNR | 2.19
KSQDLCKIMADIRAQYDELARKNR | 2.66
KSQDLDKIMADIRAQYDELARKNR | 2.8
KSQDLEKIMADIRAQYDELARKNR | 2.78
KSQDLFKIMADIRAQYDELARKNR | 2.17
KSQDLGKIMADIRAQYDELARKNR | 3.31
KSQDLHKIMADIRAQYDELARKNR | 2.71
KSQDLIKIMADIRAQYDELARKNR | 2.01
KSQDLKKIMADIRAQYDELARKNR | 2.28
KSQDLLKIMADIRAQYDELARKNR | 2.65
KSQDLMKIMADIRAQYDELARKNR | 2.33
KSQDLNKIMADIRAQYDELARKNR | 3.01
KSQDLPKIMADIRAQYDELARKNR | 3.61
KSQDLQKIMADIRAQYDELARKNR | 3.14
KSQDLRKIMADIRAQYDELARKNR | 2.54
KSQDLSKIMADIRAQYDELARKNR | 3.04
KSQDLTKIMADIRAQYDELARKNR | 2.94
KSQDLVKIMADIRAQYDELARKNR | 2.29
KSQDLWKIMADIRAQYDELARKNR | 1.98
KSQDLYKIMADIRAQYDELARKNR | 2.33
KSQDLAAIMADIRAQYDELARKNR | 2.41

Variant | protein stability index
KSQDLACIMADIRAQYDELARKNR | 2.63
KSQDLADIMADIRAQYDELARKNR | 2.76
KSQDLAEIMADIRAQYDELARKNR | 2.47
KSQDLAFIMADIRAQYDELARKNR | 1.9
KSQDLAGIMADIRAQYDELARKNR | 3.14
KSQDLAHIMADIRAQYDELARKNR | 2.73
KSQDLAIIMADIRAQYDELARKNR | 2.16
KSQDLALIMADIRAQYDELARKNR | 2.37
KSQDLAMIMADIRAQYDELARKNR | 2.48
KSQDLANIMADIRAQYDELARKNR | 2.86
KSQDLAPIMADIRAQYDELARKNR | 3.88
KSQDLAQIMADIRAQYDELARKNR | 2.43
KSQDLARIMADIRAQYDELARKNR | 2.5
KSQDLASIMADIRAQYDELARKNR | 2.46
KSQDLATIMADIRAQYDELARKNR | 2.67
KSQDLAVIMADIRAQYDELARKNR | 3.32
KSQDLAWIMADIRAQYDELARKNR | 2.14
KSQDLAYIMADIRAQYDELARKNR | 1.86
KSQDLAKAMADIRAQYDELARKNR | 3.06
KSQDLAKCMADIRAQYDELARKNR | 3.37
KSQDLAKDMADIRAQYDELARKNR | 4.13
KSQDLAKEMADIRAQYDELARKNR | 4.17
KSQDLAKFMADIRAQYDELARKNR | 1.64

Variant | protein stability index
KSQDLAKGMADIRAQYDELARKNR | 4.54
KSQDLAKHMADIRAQYDELARKNR | 3.8
KSQDLAKKMADIRAQYDELARKNR | 3.79
KSQDLAKLMADIRAQYDELARKNR | 3.13
KSQDLAKMMADIRAQYDELARKNR | 3.42
KSQDLAKNMADIRAQYDELARKNR | 3.86
KSQDLAKPMADIRAQYDELARKNR | 4.5
KSQDLAKQMADIRAQYDELARKNR | 4.1
KSQDLAKRMADIRAQYDELARKNR | 3.35
KSQDLAKSMADIRAQYDELARKNR | 4.34
KSQDLAKTMADIRAQYDELARKNR | 3.27
KSQDLAKVMADIRAQYDELARKNR | 2.99
KSQDLAKWMADIRAQYDELARKNR | 2.4
KSQDLAKYMADIRAQYDELARKNR | 3.23
KSQDLAKIAADIRAQYDELARKNR | 3.71
KSQDLAKICADIRAQYDELARKNR | 3.14
KSQDLAKIDADIRAQYDELARKNR | 4.72
KSQDLAKIEADIRAQYDELARKNR | 4.63
KSQDLAKIFADIRAQYDELARKNR | 2.77
KSQDLAKIGADIRAQYDELARKNR | 4.12
KSQDLAKIHADIRAQYDELARKNR | 3.68
KSQDLAKIIADIRAQYDELARKNR | 2.03
